# Reference: the supplement of paper PMC9170038
# System: K4 kissing-loop RNA reporter
# Test: apparent KD of K4 kissing-loop reporter; higher = weaker reporter binding
# Details: Eterna round: R107; input ligand: theophylline 20 uM
# Protocol: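 RNA-MaP round R107: designed RNA switches with theophylline, tryptophan, arginine or FMN aptamers are transcribed on-chip within common flanks. They are titrated with a labelled K4 kissing-loop RNA reporter in RNA-MaP buffer (100 mM Tris pH 7.5, 80 mM KCl, 4 mM MgCl2), without ligand or with the indicated ligand. Median apparent KD per design.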
# 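Note: bound reporter read as fluorescence of individual clusters on recovered sequencing chips by microscopy, with normalized cluster intensities fitted with a binding model.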
row,Sequence,apparent KD of K4 kissing-loop reporter [nM]
1,GCUACUGCUGAAGGAUAUAUCAAUAGAGUGAUGUUCUAUGUCGGUAGCCCGAAAGGGCUACCGACGGUAGAAGGUCAGCAGUAGC,1120
2,AACUGGGUUCGUGAUACCAGCUCACACAUGAGUGAUGUUCAUGUAGUGGGUAAAAUGUGGAGCCCUUGGCAGCACUGUGACCACG [XTheo-B1],67.5
3,UACUAUAGUGAUGUUAUAGAUAAACCAGAUACCAGUGUAACAUAACACCCUUGGCAGCUGAUGAGGGAAAAUAUAAAUGUGUAUU [AstrosSSTHe-A#4newdesignED10.09],197
4,GUUGACUACCAGAGGUGAUGUAUAGUAUCGCGAGGACCGGUACGGCCGCCACUCGUGAAGAGAAAGGAGUGAUGUUCCGUAAUGG [C9],340
5,UAAUAGUAGACCAGGUCUACUAUUAGGGAUACCAGCCUCGGUCGAGGCCCUUGGCAGCCCAGCGGGUCCAGUGAUGUUGGAUGUC [Beoratri],207
6,UUGACCUACUCAGGAUAUCCGCAGUGAUGUUGCGGUUGGCCUGAGCGACAUGAAAAUCUUACUACAGGAGAAGGGAGAGGGUUAC [Anraerce],88.5
7,UUAGGAGUGGAAGGAUAUCCUGGUGUGGGUGAUGUUAGUGAUGUUGAAGGUGCAGUGAUGUUGCGCGGAGAAGGUCCGGUGUUGA [BDazzled - #6 - Exc. FMN B],546
8,UGACUGGACUGAAGGAGCGUUGAAGGAGCGUAAGCAGUGAUGUUGCUUACAGGUAGGUCGCAGCAGGUAGGUCGCAGUCUAGUCU [ArgBS 28 #DoubleAptamer #SwitchBubble],115

# Same assay, conditions: Eterna round: R107; input ligand: tryptophan 2.4 mM
row,Sequence,apparent KD of K4 kissing-loop reporter [nM]
1,AGACUACCACACUGUCAAUAGACAGUGGACUAGGAUAUGCUGAUAAGCAGAAGGAGUGAUGUUCCGAGGUAGUCAAUAAAAUAAU [FmnAX 13 G28+G66],316
2,CCCUCACGAGUGAUGUUCGUAGGGUACAGUCAGGAUAUCAUGCGGUUGAGAAGGGACAGAGAGGGCGGCGGCGGGUUGCUCUUCG [Xeaan],222
3,ACACGGGUCUCGGCCGCCACUCUGCCUACCACCAUUAGUGCCAGUGAUGUUGGCAGGUGAGGGCUGAGGACCGGGAGAUCCAUAC [Zaremais],107
4,UAGCGUAUUGAAGGAUAUUGCCUAGGAGUGAUGUUUGUAGAAAAUUUCCAACGGAACGAAUGUUAGCAAGAAGGUCAAUGGCCUU [theeternabot_exclusion_KL_FMN_B_40],281
5,AGCUCAGAGUGACUUGAUAAGAGUCACAAACGAGGACCGGUACGGCCGCCACUCGAAAUAACGAGAGUGAUGUUCUCGCUGAGCA [FiskerMod 5 - Jieux - Same State Tryptophan A],328
6,GAGGUUUACGUAGGAUAUCGAUAAUGAGUAAAUGGAGUGAUGUUCCGAAAUUGAAUAAGAGAUGAGCGAGAAGGGCGGAUUAAGC [FMN B Same State; Euporia Solution],43.4
7,GUGUCCUAGUCGGCCGCCACUGGUACGAAAAUAGAAGGACGUGUGCACAUGAGUGAUGUUCAUGUCAGGACCGGGACUAGGGUGU [KL-SSTryp-B6 Brourdwalk2],316
8,UGUCAUUGGUCUGAUACCAGCUUGAUCGGUAAACGAUCUACUGGAGUGAUGUUCCUAAAUAGCCCUUGGCAGCAGACCGAUGACU [TheoBS 4 #SwitchBubble #StaticStem],173
9,GGGAGUAGUGCGGCCGCCACUGAGAAAGAAGAAGAAUAUAGUGAUGUUAUAUAGGAAAUAAAGAACAGGACCGGGCAUUAGAUUU [SSTRyptB.N],149
10,ACCGGACAAGAGGUGUCAGUGAUGUUGGCGCGAGGACCGGUACGGCCGCCACUCGAGGAAAGCGGUCACGCCCUGGUAGGACUGG [theeternabot_exclusion_KL_Trp_A_22],251
11,AAGUGCCUCAAGAGGCAGUAUCUGCCUCAACGAGGACCGGUACGGCCGCCACUCGAAUAAUAGAGUGAUGUUCUAAGAGGCACAA [AK1.5 SS Tryptophan A],432
12,AGAACUGUCUGAGAUACCAGCCAAGGAGUGAUGUUCCGGCUCGACGAAACGUCGAGCAAUGGCCCUUGGCAGCUCAGACAGUUCA [Omei KL Theo B SS A v3],242
13,GCGGCCCAGACGGAUACCAGUGACCCGCUGGGAACCGCGGGCCCAGAGUGAUGUUCGGGACACCCUUGGCAGCCGCCUGGGUCGC [#2 Same State - Theophylline B Attempt #19 (HarryS)],448
14,AAGCAUUCUUCGGAUUGCAGACCCGCUGAGGAGGAUAUGACGAAAGUCAGAAGGUUUCAGUGAUGUUGAGGCCUCCUCAAUGGUC [whbob_Ex_FMNA__2th183],263
15,GCAGUGAUGUUGCUCGUUUCAUCGCGAGAUACCAGACCAUAUGAGGUCCCUUGGCAGCUCUAGUCAUCUGGUCCUUUUGCGUACU [theeternabot_exclusion_KL_Theo_A_2],653
16,GUUAUCACGCGAAGGAGCGCGGAGCGAUAACGCAGUGAUGUUGCGUUAAACGUAAUAUAAUCGCAGGUAGGUCGCGCGUGAUACC [Arg B Ex t6],95.6

row,Sequence,apparent KD of K4 kissing-loop reporter [nM]
1,ACAUUUUCAAGUGAUACCAGACAUUUUUUUUUCUUUAUUUAUGCUAAGUGAUGUUUAGCAGUCCCUUGGCAGCACUAUUUAACUA [JR_Nu_SSTheophyB_Sub031],115
2,CGCUGGGCGAGUGAUGUUCGCUCACGUGAUACCAGUGCCAUCCAACACCCUUGGCAGCACGCGGGCAGUGAUGUUGUCCUUGUAU [Exclusion Theophylline A GF6],119
3,AAUUGGCAGUGAUGUUGUCAAGGACAUACGAAGGAUAUAAGUGAAGUUAGAAGGUCGACCAUCACUUCUUUGCCAUUUGCAUGAC [theeternabot_exclusion_KL_FMN_A_20],193
4,CAUCCUACACCUCAAGCAGUGAUGUUGCUACGAGGACCGGUACGGCCGCCACUCGUUUAAGCAUGGAUAUUAGCUGUGCUGACUA [theeternabot_exclusion_KL_Trp_A_16],439
5,UGACUGGACUGAAGGAGCGCUGAACUCCUAGUGAUGUUAGGAUAACGAGACAAAGUCUCGCGGCAGGUAGGUCGCAGUCUAGUCU,106
6,CGCGGCCGGCCGGAUACCAGUGACCCGCUGGCAACCGCGGGCCCAGAGUGAUGUUCGGGACACCCUUGGCAGCCGCCUGGGCGUG [#2 Same State - Theophylline B Attempt #4 (HarryS)],396
7,ACGUAGUUCUAGGAUACCAGCCAAGGAGCCCAGGACAAAAGUCCUGGCGCCAGUGAUGUUGGCCCUUGGCAGCCUAGAACUACGA [Omei KL Theo B Exc B v4],151
8,GCUACUGCUGAAGGAUAUAUCAAUAGAGUGAUGUUCUAUGUCGGUAGCCCGAAAGGGCUACCGACGGUAGAAGGUCAGCAGUAGC,960
9,AACUGGGUUCGUGAUACCAGCUCACACAUGAGUGAUGUUCAUGUAGUGGGUAAAAUGUGGAGCCCUUGGCAGCACUGUGACCACG [XTheo-B1],81.3
10,UACUAUAGUGAUGUUAUAGAUAAACCAGAUACCAGUGUAACAUAACACCCUUGGCAGCUGAUGAGGGAAAAUAUAAAUGUGUAUU [AstrosSSTHe-A#4newdesignED10.09],197
11,GUUGACUACCAGAGGUGAUGUAUAGUAUCGCGAGGACCGGUACGGCCGCCACUCGUGAAGAGAAAGGAGUGAUGUUCCGUAAUGG [C9],122
12,UAAUAGUAGACCAGGUCUACUAUUAGGGAUACCAGCCUCGGUCGAGGCCCUUGGCAGCCCAGCGGGUCCAGUGAUGUUGGAUGUC [Beoratri],342
13,UUGACCUACUCAGGAUAUCCGCAGUGAUGUUGCGGUUGGCCUGAGCGACAUGAAAAUCUUACUACAGGAGAAGGGAGAGGGUUAC [Anraerce],96.9
14,UUAGGAGUGGAAGGAUAUCCUGGUGUGGGUGAUGUUAGUGAUGUUGAAGGUGCAGUGAUGUUGCGCGGAGAAGGUCCGGUGUUGA [BDazzled - #6 - Exc. FMN B],319
15,UGACUGGACUGAAGGAGCGUUGAAGGAGCGUAAGCAGUGAUGUUGCUUACAGGUAGGUCGCAGCAGGUAGGUCGCAGUCUAGUCU [ArgBS 28 #DoubleAptamer #SwitchBubble],122
